Test [1] concerns the target human Notch1 displayed on the surfaces of cells (human, UniProt P46531 19-2555). Briefly: cell-based or functional assay.
Test [2] deals with T1, recombinant human Notch 1/Fc fusion protein (rhNotch1-Fc) (human, UniProt P46531 19-526).
T1 construct: Bought protein; also called rhNotchl-Fc; R&D Systems Cat. No. 3647-TK-050; not shown: Fc part
Briefly: SPR (Biacore T100), antibody captured on anti-mouse IgG, rhNotch1-Fc as analyte, 25°C. Background: Surface plasmon resonance follows binding to a sensor surface in real time, without labels.

Test [3] deals with T2, human Notch4 displayed on the surfaces of cells (human, UniProt Q99466 24-2003).
T2 construct: whole, on cells; also called human Notch4 on CHO FlpIn cells
T2 sequence (Q99466 24-2003): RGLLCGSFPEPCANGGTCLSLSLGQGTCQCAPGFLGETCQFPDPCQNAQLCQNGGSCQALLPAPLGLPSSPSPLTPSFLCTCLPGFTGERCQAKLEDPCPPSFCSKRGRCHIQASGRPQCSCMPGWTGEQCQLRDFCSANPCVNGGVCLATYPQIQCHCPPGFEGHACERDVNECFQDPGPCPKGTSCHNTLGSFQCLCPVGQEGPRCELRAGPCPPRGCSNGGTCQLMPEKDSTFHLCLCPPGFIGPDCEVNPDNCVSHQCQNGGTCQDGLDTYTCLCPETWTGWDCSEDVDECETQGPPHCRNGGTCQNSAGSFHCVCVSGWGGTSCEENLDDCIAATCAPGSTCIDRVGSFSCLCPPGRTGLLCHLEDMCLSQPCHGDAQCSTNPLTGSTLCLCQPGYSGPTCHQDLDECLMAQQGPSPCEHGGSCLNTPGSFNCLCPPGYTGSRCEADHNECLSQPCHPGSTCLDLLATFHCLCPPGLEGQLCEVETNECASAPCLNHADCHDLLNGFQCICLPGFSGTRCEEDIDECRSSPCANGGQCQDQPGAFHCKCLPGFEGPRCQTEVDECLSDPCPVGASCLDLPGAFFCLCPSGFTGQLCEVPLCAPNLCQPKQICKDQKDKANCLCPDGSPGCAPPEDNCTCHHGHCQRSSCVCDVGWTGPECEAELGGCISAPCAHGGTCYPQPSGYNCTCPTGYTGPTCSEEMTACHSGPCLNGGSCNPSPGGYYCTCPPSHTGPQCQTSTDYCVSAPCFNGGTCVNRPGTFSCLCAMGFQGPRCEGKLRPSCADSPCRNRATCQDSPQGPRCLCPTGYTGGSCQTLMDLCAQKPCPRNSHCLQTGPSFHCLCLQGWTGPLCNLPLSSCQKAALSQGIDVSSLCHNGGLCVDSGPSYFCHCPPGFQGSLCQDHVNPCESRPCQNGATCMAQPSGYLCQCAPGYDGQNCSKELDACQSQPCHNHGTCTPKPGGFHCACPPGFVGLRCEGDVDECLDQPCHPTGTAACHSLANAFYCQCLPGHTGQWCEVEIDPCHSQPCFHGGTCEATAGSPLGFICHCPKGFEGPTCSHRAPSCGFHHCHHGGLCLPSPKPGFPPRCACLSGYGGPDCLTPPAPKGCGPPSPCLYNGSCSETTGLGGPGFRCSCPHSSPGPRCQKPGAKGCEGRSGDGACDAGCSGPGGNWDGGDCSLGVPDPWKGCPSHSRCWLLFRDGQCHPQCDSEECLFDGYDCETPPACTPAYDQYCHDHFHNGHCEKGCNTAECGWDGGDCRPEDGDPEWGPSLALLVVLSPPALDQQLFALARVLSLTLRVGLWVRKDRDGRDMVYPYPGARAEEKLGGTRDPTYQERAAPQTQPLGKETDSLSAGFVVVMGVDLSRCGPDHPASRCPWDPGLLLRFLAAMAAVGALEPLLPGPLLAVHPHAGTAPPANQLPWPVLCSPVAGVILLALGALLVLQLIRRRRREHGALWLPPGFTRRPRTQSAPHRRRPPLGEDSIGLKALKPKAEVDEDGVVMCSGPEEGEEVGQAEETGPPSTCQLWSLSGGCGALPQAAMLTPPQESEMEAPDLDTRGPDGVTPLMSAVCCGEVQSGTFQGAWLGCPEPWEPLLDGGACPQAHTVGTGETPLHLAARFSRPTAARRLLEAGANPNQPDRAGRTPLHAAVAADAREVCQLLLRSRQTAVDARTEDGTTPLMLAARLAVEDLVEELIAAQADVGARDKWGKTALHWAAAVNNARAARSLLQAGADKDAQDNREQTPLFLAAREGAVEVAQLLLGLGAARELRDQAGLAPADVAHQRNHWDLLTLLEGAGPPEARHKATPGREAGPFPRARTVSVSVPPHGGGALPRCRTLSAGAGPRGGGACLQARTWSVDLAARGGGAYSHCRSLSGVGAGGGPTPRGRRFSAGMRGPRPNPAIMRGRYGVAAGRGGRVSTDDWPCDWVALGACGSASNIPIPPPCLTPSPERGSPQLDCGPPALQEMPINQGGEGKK
Briefly: electrochemiluminescence (Meso Scale Discovery) on CHO FlpIn cells.

Test [4] deals with T3, human Notch3 displayed on the surfaces of cells (human, UniProt Q9UM47 40-2321).
T3 construct: whole, on cells; also called human Notch3 on CHO FlpIn cells; Notch3-dependent reporter cells
The test is described as above.

Test [5] deals with T4, human Notch2 displayed on the surfaces of cells (human, UniProt Q04721 26-2471).
T4 construct: whole, on cells; also called human Notch2 on CHO FlpIn cells; Notch2-dependent reporter cells
Described as above.

In test [6] the target is T5, rhNotch2-Fc (human, UniProt Q04721 26-530).
T5 construct: Bought protein; also called human Notch2 protein; R&D Cat. No. 3735-NT-050; not shown: Fc part
T5 sequence (looked up): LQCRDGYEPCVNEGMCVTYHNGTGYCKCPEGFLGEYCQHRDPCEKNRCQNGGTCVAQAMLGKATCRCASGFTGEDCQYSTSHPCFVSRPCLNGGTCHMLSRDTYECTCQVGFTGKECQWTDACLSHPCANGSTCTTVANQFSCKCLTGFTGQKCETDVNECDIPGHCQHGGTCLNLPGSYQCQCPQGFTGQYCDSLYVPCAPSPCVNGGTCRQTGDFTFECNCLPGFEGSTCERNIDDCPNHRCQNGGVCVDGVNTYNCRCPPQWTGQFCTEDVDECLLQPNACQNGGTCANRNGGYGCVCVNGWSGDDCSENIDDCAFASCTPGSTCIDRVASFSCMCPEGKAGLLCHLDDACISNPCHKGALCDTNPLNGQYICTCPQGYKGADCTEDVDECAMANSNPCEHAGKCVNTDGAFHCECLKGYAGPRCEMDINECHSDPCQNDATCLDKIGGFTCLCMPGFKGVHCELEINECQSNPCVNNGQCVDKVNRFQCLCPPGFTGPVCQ
Briefly: BLI (Octet QK), Notch-Fc on anti-human-Fc sensors. In general terms: BLI is a label-free optical method that tracks binding on a fibre tip over time.

For test [7], the target named is T6, rhNotch3-Fc (human, UniProt Q9UM47 40-467).
T6 construct: Bought protein; also called human Notch3 protein; R&D Cat. No. 1559-NT-050; not shown: Fc part
T6 sequence (looked up): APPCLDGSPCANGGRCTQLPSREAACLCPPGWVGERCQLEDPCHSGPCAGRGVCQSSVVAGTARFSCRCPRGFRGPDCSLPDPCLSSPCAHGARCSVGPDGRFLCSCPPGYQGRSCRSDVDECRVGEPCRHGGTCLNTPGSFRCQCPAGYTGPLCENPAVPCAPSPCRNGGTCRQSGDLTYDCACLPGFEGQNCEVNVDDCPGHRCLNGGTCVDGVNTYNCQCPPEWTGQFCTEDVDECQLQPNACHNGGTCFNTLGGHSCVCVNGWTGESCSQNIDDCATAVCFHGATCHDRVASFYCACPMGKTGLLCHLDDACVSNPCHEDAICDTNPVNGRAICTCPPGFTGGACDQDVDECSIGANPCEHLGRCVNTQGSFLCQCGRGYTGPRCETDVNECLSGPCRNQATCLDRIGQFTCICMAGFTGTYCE
Briefly: BLI (Octet QK), Notch-Fc on anti-human-Fc sensors.

human Notch1 displayed on the surfaces of cells, sequence (P46531 19-2555): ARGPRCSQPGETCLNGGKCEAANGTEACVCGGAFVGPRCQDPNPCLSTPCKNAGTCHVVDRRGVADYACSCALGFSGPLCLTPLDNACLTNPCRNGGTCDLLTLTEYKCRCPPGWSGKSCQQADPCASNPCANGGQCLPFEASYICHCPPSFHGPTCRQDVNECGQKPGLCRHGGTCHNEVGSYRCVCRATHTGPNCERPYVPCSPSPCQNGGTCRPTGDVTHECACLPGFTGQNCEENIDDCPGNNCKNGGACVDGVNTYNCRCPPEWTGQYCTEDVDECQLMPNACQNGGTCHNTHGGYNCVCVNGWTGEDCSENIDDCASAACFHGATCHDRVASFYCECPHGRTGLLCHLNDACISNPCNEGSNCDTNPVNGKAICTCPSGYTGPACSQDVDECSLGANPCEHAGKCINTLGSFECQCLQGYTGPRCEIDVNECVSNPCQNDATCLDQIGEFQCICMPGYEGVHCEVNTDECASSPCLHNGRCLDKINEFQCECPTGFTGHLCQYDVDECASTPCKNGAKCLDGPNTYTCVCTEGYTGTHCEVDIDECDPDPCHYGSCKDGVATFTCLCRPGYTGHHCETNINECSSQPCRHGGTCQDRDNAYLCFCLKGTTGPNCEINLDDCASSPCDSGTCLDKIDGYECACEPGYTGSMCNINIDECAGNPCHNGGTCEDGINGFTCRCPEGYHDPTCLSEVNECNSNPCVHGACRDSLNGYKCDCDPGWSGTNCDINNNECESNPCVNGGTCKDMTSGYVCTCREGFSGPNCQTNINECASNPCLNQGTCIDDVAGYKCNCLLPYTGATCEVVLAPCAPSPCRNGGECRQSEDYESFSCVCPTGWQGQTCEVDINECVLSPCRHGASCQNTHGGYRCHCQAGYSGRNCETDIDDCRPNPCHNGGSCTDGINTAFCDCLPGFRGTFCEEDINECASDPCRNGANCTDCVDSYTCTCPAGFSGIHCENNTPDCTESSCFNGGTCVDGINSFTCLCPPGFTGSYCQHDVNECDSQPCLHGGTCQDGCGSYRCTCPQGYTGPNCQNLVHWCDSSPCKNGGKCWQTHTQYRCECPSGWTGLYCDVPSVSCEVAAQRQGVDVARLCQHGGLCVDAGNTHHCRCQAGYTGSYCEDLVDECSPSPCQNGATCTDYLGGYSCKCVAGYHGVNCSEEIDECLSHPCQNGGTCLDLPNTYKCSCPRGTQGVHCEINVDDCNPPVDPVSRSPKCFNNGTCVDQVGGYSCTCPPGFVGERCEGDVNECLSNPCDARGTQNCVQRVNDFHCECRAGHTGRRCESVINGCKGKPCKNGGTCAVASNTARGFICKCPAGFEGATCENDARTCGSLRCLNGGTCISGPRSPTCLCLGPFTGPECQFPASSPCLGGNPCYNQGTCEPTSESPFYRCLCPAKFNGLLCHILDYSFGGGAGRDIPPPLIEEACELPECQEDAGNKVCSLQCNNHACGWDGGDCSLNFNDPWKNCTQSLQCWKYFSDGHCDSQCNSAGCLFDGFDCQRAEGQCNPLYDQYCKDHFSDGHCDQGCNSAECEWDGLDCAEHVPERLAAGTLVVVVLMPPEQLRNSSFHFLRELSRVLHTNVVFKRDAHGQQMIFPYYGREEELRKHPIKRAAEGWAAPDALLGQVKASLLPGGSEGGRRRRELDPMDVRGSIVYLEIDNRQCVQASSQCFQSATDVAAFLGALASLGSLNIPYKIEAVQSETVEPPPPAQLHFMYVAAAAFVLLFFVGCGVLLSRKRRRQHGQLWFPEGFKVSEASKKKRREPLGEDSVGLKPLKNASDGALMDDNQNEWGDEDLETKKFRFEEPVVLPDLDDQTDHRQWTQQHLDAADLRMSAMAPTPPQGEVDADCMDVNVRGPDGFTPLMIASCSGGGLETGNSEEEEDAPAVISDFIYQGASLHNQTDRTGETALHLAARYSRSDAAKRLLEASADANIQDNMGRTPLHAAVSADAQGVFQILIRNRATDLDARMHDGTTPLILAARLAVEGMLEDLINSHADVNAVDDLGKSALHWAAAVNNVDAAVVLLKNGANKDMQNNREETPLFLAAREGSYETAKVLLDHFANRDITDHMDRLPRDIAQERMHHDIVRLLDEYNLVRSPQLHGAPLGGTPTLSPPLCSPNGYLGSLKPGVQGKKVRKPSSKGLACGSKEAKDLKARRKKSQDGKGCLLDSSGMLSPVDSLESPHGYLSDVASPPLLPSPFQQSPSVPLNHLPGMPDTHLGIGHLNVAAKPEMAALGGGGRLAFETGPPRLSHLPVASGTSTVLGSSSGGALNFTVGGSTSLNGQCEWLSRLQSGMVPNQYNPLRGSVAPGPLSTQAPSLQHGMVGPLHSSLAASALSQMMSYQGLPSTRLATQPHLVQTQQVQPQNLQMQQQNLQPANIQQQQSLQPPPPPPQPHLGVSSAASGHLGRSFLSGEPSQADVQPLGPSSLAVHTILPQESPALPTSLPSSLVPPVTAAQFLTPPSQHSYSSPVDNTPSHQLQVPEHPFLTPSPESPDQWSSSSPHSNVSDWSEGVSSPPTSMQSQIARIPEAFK

B1: Hu2E6-62 (antibody, human IgG1, kappa, V domains shown)
VH: EVQLVQSGAEVAKPGASVKMSCKASGYTFTSYWMHWVKQAPGQGLEWIGAVYPRNNDATYNQKFKGKATLTADTSTSTAYMELRSLRSDDTAVYYCLYFNYNFDYWGQGTLLTVSS
VL: EIVLTQSPATMSASPGERVTMSCRASSSVSYMHWYQQKPGQSPRLLIYDTSNRASGVPAHFSGSGSGTDYTLTISSMEPEDFATYYCQQWSSYPYTFGQGTKLEIKR
B1: in test [1], the “EC50, Inhibition of Notch 1 Signaling, DLL1 (row printed 'DLI A')” value worked out at 0.1 nM; the “EC50, Inhibition of Notch 1 Signaling, DLL4 (row printed 'DLI A')” value amounted to 0.02 nM; the “EC50, Inhibition of Notch 1 Signaling, Jag 1” value amounted to 0.9 nM; the “EC50, Inhibition of Notch 1 Signaling, Jag 2” value worked out at 0.5 nM.

B2: antibody 2E6 (antibody, mouse IgG1, kappa, V domains shown)
VH: EVQLQQSGAELARPGASVKMSCKASGYTFTSYWMHWVKQRPGQGLEWIGAVYPRNNDTTYNQKFKGKAKLTAVTSASTAYMALSSLTNEDSAVYYCLYFNYNFDYWGQGTTLTVSS
VL: QIVLTQSPAIMSASPGEKVTMTCSASSSVSYMHWYQQKPGSSPRLLIYDTSNLASGVPVHFSGSGSGTSYSLTIIRMEAEDAATYYCQQWSSYPYTFGGGTKLEIKR
notes: Mouse monoclonal from hybridoma, IgG1 kappa; also called 2E06; mu2E6
For the molecule B2, in test [1], the “EC50, Inhibition of Notch 1 Signaling, DLL1 (row printed 'DLI A')” value was 0.2 nM; the “EC50, Inhibition of Notch 1 Signaling, DLL4 (row printed 'DLI A')” value was 0.1 nM; the “EC50, Inhibition of Notch 1 Signaling, Jag 1” value was found to be 0.4 nM; the “EC50, Inhibition of Notch 1 Signaling, Jag 2” value was 0.1 nM. In addition, the Kd (in general, the constant that tells how readily two partners part at equilibrium) in test [2] was at most 10 nM.

B3: antibody 2A11 (antibody, mouse IgG2b, kappa, V domains shown)
VH: QVQLQQSGPELVKPGASVKISCKASGYAFSSSWMNWVKQRPGKGLEWIGRIYPGDGDTNYNGKFKGKATLTADKSSSTAYMQLSSLTSEDSAVYFCARSGSIYYGNHGDYFDYWGQGTTLTVSS
VL: QIVLTQSPAIMSASPGEKVTMTCSASSSVSYMHWYQQKPGSSPRLLIYDTSNLASGVPVHFSGSGSGTSYSLTIIRMEAEDAATYYCQQWSSYPYTFGGGTKLEIKR
notes: Mouse monoclonal from hybridoma, IgG2b kappa
In the case of B3, the binding result in test [3] is reported as “no binding (tested: 5 μg/ml antibody)”; in test [4], “no binding (tested: 5 μg/ml antibody)”; in test [5], “no binding (tested: 5 μg/ml antibody)”; in test [6], “no binding (tested: 50 μg/ml antibody)”; in test [7], “no binding (tested: 50 μg/ml antibody)”. The equilibrium dissociation constant (Kd) in test [2] is at most 10 nM.

B4: antibody 2D11 (antibody, mouse IgG1, kappa, V domains shown)
VH: EVQLQQSGAELARPGASVKMSCKASGYTFTRYWMHWVKQRPGQGLEWIGAIYPGNSDTTYNQKFKGKAKLTAVTSASTAYMELSSLTNEDSAVYYCIYPYDYLDYWGQGTTLTVSS
VL: QIVLTQSPAIMSASPGEKVTMTCSASSSLSYMHWYQQKPGTSPKRWVYDTSKLASGVPARFSGSGSGTSYSLTISSMEAEDAATYYCHQRSSYPYTFGGGTKLEIKR
notes: Mouse monoclonal from hybridoma, IgG1 kappa
Consider B4, for which the dissociation constant (Kd) in test [2] is at most 10 nM.

The record behind these values is WO2012003472A1 (dated 2012).
